This passage reports M (mean fluorescence, FL1-Height) results from patent US20040058403A1.

This assay concerns the target peptide(18mer)-BodipyFL.

Consider “NlpA-[Dig scFv] (26-10 anti-digoxin/digoxigenin scFv fused to the NlpA anchor) (from UniProt P04846 24-29)”, for which the M (mean fluorescence, FL1-Height) was 6.78.
